Test results reported in patent US9260500B2, “Peptide and use thereof” (Takeda Pharmaceutical Company Limited, priority 2009, dated 2016).
Starred links: 1 amine or outer side, 2 acyl side, 3 side chain; linkers in the order of their positions; H or OH if unused. Non-standard residues stand in square brackets, D forms with d. Tyr(Me) = O-methyltyrosine, COc1ccc(C[C@H](N[*:1])C(=O)[*:2])cc1; Phe(4-F) = N[C@@H](Cc1ccc(F)cc1)C(=O)O; 4Pal = N[C@@H](Cc1ccncc1)C(=O)O; dHyp = O=C(O)[C@H]1C[C@H](O)CN1; Cha = N[C@@H](CC1CCCCC1)C(=O)O; d(αMeP) = C[C@]1(C(=O)O)CCCN1; dPip = O=C(O)[C@H]1CCCCN1; NMeA = CN[C@@H](C)C(=O)O; Nle = CCCC[C@H](N)C(=O)O; Aib = CC(C)(N)C(=O)O; GABA = NCCCC(=O)O; Sar = CNCC(=O)O

How the values were obtained:
human Y2 receptor [1] = molecular target: T1, human Y2 receptor (Homo sapiens, UniProt P49146); test: Human Y2 Receptor G Protein Binding Assay (GBA), [35S]GTPγS; assay type: biochemical; settings: EC50 of test compound/EC50 of PYY(3-36) (PYY3-36 taken as 1), hY2R/CHO membrane fraction
T1 construct: expressed in transfected cells; membrane fraction
T1 sequence (P49146 1-381): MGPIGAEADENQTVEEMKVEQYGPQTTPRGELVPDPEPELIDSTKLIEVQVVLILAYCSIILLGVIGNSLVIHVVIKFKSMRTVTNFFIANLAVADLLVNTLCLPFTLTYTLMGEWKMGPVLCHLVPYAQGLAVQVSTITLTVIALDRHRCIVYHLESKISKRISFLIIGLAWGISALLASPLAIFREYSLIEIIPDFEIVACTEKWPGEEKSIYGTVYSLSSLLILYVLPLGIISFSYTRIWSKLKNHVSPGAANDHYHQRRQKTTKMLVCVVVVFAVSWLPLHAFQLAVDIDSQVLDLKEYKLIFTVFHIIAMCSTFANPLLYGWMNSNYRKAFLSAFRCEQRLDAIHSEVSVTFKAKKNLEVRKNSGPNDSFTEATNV
Procedure, shortened: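 Agonism measured as [35S]GTPγS binding, read by GF/C filtration and scintillation counting after 120 min at room temperature, using human Y2 membranes at 1 μg protein/mL in pH 7.4 Tris/MgCl2/NaCl/GDP buffer. Compound serially diluted 100 μM–1 nM; EC50 normalized to PYY(3-36) (ratio = compound/PYY).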

human Y2 receptor [2] = molecular target: T1, human Y2 receptor; test: Receptor Binding Assay (RBA) for Human Y2, [125I]-PYY displacement on hY2R/CHO membrane fraction; settings: IC50 of test compound/IC50 of PYY(3-36) (PYY(3-36) taken as 1)
Procedure, shortened: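 Read-out is [125I]-PYY displacement from membranes of CHO/dhfr− cells stably transfected with human Y2R. Membranes were obtained by disrupting cells in a buffer of 10 mM NaHCO3, 5 mM EDTA and protease inhibitors.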

Row | Substance | GBA EC50 Ratio (human Y2 receptor [1]) | RBA IC50 Ratio (human Y2 receptor [2])
1 | Ac-[D-Pro24, Pya(4)26, Phe(4F)27, Aib28,31, Lys30, Cha36]-PYY(23-36) (Ac-S[dP]R[4Pal][Phe(4-F)][Aib]NK[Aib]TRQR[Cha]-NH2; SMILES CC(=O)N[C@@H](CO)C(=O)N1CCC[C@@H]1C(=O)N[C@@H](CCCNC(=N)N)C(=O)N[C@@H](Cc1ccncc1)C(=O)N[C@@H](Cc1ccc(F)cc1)C(=O)NC(C)(C)C(=O)N[C@@H](CC(N)=O)C(=O)N[C@@H](CCCCN)C(=O)NC(C)(C)C(=O)N[C@H](C(=O)N[C@@H](CCCNC(=N)N)C(=O)N[C@@H](CCC(N)=O)C(=O)N[C@@H](CCCNC(=N)N)C(=O)N[C@@H](CC1CCCCC1)C(N)=O)[C@@H](C)O) [compound No. 305] | 3.9 | 10
2 | Ac-[D-Pro24, Tyr(Me)26, Cha27,36, Aib28,31, Lys30]-PYY(23-36) (Ac-S[dP]R[Tyr(Me)][Cha][Aib]NK[Aib]TRQR[Cha]-NH2; SMILES COc1ccc(C[C@H](NC(=O)[C@H](CCCNC(=N)N)NC(=O)[C@H]2CCCN2C(=O)[C@H](CO)NC(C)=O)C(=O)N[C@@H](CC2CCCCC2)C(=O)NC(C)(C)C(=O)N[C@@H](CC(N)=O)C(=O)N[C@@H](CCCCN)C(=O)NC(C)(C)C(=O)N[C@H](C(=O)N[C@@H](CCCNC(=N)N)C(=O)N[C@@H](CCC(N)=O)C(=O)N[C@@H](CCCNC(=N)N)C(=O)N[C@@H](CC2CCCCC2)C(N)=O)[C@@H](C)O)cc1) [compound No. 348] | 1.4 | 0.88
3 | Ac-[D-Ser23, MeAla24, Cha27,28,36, Aib31]-PYY(23-36) (Ac-[dS][NMeA]RH[Cha][Cha]NL[Aib]TRQR[Cha]-NH2; SMILES CC(=O)N[C@H](CO)C(=O)N(C)[C@@H](C)C(=O)N[C@@H](CCCNC(=N)N)C(=O)N[C@@H](Cc1c[nH]cn1)C(=O)N[C@@H](CC1CCCCC1)C(=O)N[C@@H](CC1CCCCC1)C(=O)N[C@@H](CC(N)=O)C(=O)N[C@@H](CC(C)C)C(=O)NC(C)(C)C(=O)N[C@H](C(=O)N[C@@H](CCCNC(=N)N)C(=O)N[C@@H](CCC(N)=O)C(=O)N[C@@H](CCCNC(=N)N)C(=O)N[C@@H](CC1CCCCC1)C(N)=O)[C@@H](C)O) [compound No. 109] | 5.1 | 6.1
4 | Ac-[D-Ser23, Sar24, Cha27,28,36, Aib31]-PYY(23-36) (Ac-[dS][Sar]RH[Cha][Cha]NL[Aib]TRQR[Cha]-NH2; SMILES CC(=O)N[C@H](CO)C(=O)N(C)CC(=O)N[C@@H](CCCNC(=N)N)C(=O)N[C@@H](Cc1c[nH]cn1)C(=O)N[C@@H](CC1CCCCC1)C(=O)N[C@@H](CC1CCCCC1)C(=O)N[C@@H](CC(N)=O)C(=O)N[C@@H](CC(C)C)C(=O)NC(C)(C)C(=O)N[C@H](C(=O)N[C@@H](CCCNC(=N)N)C(=O)N[C@@H](CCC(N)=O)C(=O)N[C@@H](CCCNC(=N)N)C(=O)N[C@@H](CC1CCCCC1)C(N)=O)[C@@H](C)O) [compound No. 111] | 5.3 | 6.6
5 | Ac-[D-αMePro24, Cha27,28,36, Aib31]-PYY(23-36) (Ac-S[d(αMeP)]RH[Cha][Cha]NL[Aib]TRQR[Cha]-NH2; SMILES CC(=O)N[C@@H](CO)C(=O)N1CCC[C@]1(C)C(=O)N[C@@H](CCCNC(=N)N)C(=O)N[C@@H](Cc1c[nH]cn1)C(=O)N[C@@H](CC1CCCCC1)C(=O)N[C@@H](CC1CCCCC1)C(=O)N[C@@H](CC(N)=O)C(=O)N[C@@H](CC(C)C)C(=O)NC(C)(C)C(=O)N[C@H](C(=O)N[C@@H](CCCNC(=N)N)C(=O)N[C@@H](CCC(N)=O)C(=O)N[C@@H](CCCNC(=N)N)C(=O)N[C@@H](CC1CCCCC1)C(N)=O)[C@@H](C)O) [compound No. 155] | 2.6 | 4.5
6 | Ac-[Dap22, D-Pro24, Pya(4)26, Cha27,36, Aib28,31, Lys30]-PYY(22-36) [compound No. 273] | 1.6 | 1.2
7 | Ac-[GABA24, Cha27,28,36, Aib31]-PYY(23-36) (Ac-S[GABA]RH[Cha][Cha]NL[Aib]TRQR[Cha]-NH2; SMILES CC(=O)N[C@@H](CO)C(=O)NCCCC(=O)N[C@@H](CCCNC(=N)N)C(=O)N[C@@H](Cc1c[nH]cn1)C(=O)N[C@@H](CC1CCCCC1)C(=O)N[C@@H](CC1CCCCC1)C(=O)N[C@@H](CC(N)=O)C(=O)N[C@@H](CC(C)C)C(=O)NC(C)(C)C(=O)N[C@H](C(=O)N[C@@H](CCCNC(=N)N)C(=O)N[C@@H](CCC(N)=O)C(=O)N[C@@H](CCCNC(=N)N)C(=O)N[C@@H](CC1CCCCC1)C(N)=O)[C@@H](C)O) [compound No. 156] | 3.0 | 5.8
8 | Ac-[Gln23, D-Pro24, Pya(4)26, Cha27,36, Aib28,31, Lys30]-PYY(23-36) (Ac-Q[dP]R[4Pal][Cha][Aib]NK[Aib]TRQR[Cha]-NH2; SMILES CC(=O)N[C@@H](CCC(N)=O)C(=O)N1CCC[C@@H]1C(=O)N[C@@H](CCCNC(=N)N)C(=O)N[C@@H](Cc1ccncc1)C(=O)N[C@@H](CC1CCCCC1)C(=O)NC(C)(C)C(=O)N[C@@H](CC(N)=O)C(=O)N[C@@H](CCCCN)C(=O)NC(C)(C)C(=O)N[C@H](C(=O)N[C@@H](CCCNC(=N)N)C(=O)N[C@@H](CCC(N)=O)C(=O)N[C@@H](CCCNC(=N)N)C(=O)N[C@@H](CC1CCCCC1)C(N)=O)[C@@H](C)O) [compound No. 210] | 0.9 | 1.3
9 | Ac-[Glu23, D-Hyp24, Pya(4)26, Cha27,36, Aib28,31, Lys30]-PYY(23-36) (Ac-E[dHyp]R[4Pal][Cha][Aib]NK[Aib]TRQR[Cha]-NH2; SMILES CC(=O)N[C@@H](CCC(=O)O)C(=O)N1C[C@@H](O)C[C@@H]1C(=O)N[C@@H](CCCNC(=N)N)C(=O)N[C@@H](Cc1ccncc1)C(=O)N[C@@H](CC1CCCCC1)C(=O)NC(C)(C)C(=O)N[C@@H](CC(N)=O)C(=O)N[C@@H](CCCCN)C(=O)NC(C)(C)C(=O)N[C@H](C(=O)N[C@@H](CCCNC(=N)N)C(=O)N[C@@H](CCC(N)=O)C(=O)N[C@@H](CCCNC(=N)N)C(=O)N[C@@H](CC1CCCCC1)C(N)=O)[C@@H](C)O) [compound No. 208] | 2.2 | 3.4
10 | Ac-[Glu23, D-Pic(2)24, Cha27,28,36, Aib31]-PYY(23-36) (Ac-E[dPip]RH[Cha][Cha]NL[Aib]TRQR[Cha]-NH2; SMILES CC(=O)N[C@@H](CCC(=O)O)C(=O)N1CCCC[C@@H]1C(=O)N[C@@H](CCCNC(=N)N)C(=O)N[C@@H](Cc1c[nH]cn1)C(=O)N[C@@H](CC1CCCCC1)C(=O)N[C@@H](CC1CCCCC1)C(=O)N[C@@H](CC(N)=O)C(=O)N[C@@H](CC(C)C)C(=O)NC(C)(C)C(=O)N[C@H](C(=O)N[C@@H](CCCNC(=N)N)C(=O)N[C@@H](CCC(N)=O)C(=O)N[C@@H](CCCNC(=N)N)C(=O)N[C@@H](CC1CCCCC1)C(N)=O)[C@@H](C)O) [compound No. 120] | 10 | 17
11 | Ac-[Glu23, D-Pro24, Nle25, Pya(4)26, Cha27,28,36, Lys30, Aib31]-PYY(23-36) (Ac-E[dP][Nle][4Pal][Cha][Cha]NK[Aib]TRQR[Cha]-NH2; SMILES CCCC[C@H](NC(=O)[C@H]1CCCN1C(=O)[C@H](CCC(=O)O)NC(C)=O)C(=O)N[C@@H](Cc1ccncc1)C(=O)N[C@@H](CC1CCCCC1)C(=O)N[C@@H](CC1CCCCC1)C(=O)N[C@@H](CC(N)=O)C(=O)N[C@@H](CCCCN)C(=O)NC(C)(C)C(=O)N[C@H](C(=O)N[C@@H](CCCNC(=N)N)C(=O)N[C@@H](CCC(N)=O)C(=O)N[C@@H](CCCNC(=N)N)C(=O)N[C@@H](CC1CCCCC1)C(N)=O)[C@@H](C)O) [compound No. 172] | 1.3 | 2.3
12 | Ac-[Glu23, D-Pro24, Nle25, Pya(4)26, Cha27,36, Aib28,31, Lys30]-PYY(23-36) (Ac-E[dP][Nle][4Pal][Cha][Aib]NK[Aib]TRQR[Cha]-NH2; SMILES CCCC[C@H](NC(=O)[C@H]1CCCN1C(=O)[C@H](CCC(=O)O)NC(C)=O)C(=O)N[C@@H](Cc1ccncc1)C(=O)N[C@@H](CC1CCCCC1)C(=O)NC(C)(C)C(=O)N[C@@H](CC(N)=O)C(=O)N[C@@H](CCCCN)C(=O)NC(C)(C)C(=O)N[C@H](C(=O)N[C@@H](CCCNC(=N)N)C(=O)N[C@@H](CCC(N)=O)C(=O)N[C@@H](CCCNC(=N)N)C(=O)N[C@@H](CC1CCCCC1)C(N)=O)[C@@H](C)O) [compound No. 227] | 6.9 | 7.5
13 | Ac-[Glu23, D-Pro24, Pya(4)26, Cha27,28,36, Aib31]-PYY(23-36) (Ac-E[dP]R[4Pal][Cha][Cha]NL[Aib]TRQR[Cha]-NH2; SMILES CC(=O)N[C@@H](CCC(=O)O)C(=O)N1CCC[C@@H]1C(=O)N[C@@H](CCCNC(=N)N)C(=O)N[C@@H](Cc1ccncc1)C(=O)N[C@@H](CC1CCCCC1)C(=O)N[C@@H](CC1CCCCC1)C(=O)N[C@@H](CC(N)=O)C(=O)N[C@@H](CC(C)C)C(=O)NC(C)(C)C(=O)N[C@H](C(=O)N[C@@H](CCCNC(=N)N)C(=O)N[C@@H](CCC(N)=O)C(=O)N[C@@H](CCCNC(=N)N)C(=O)N[C@@H](CC1CCCCC1)C(N)=O)[C@@H](C)O) [compound No. 141] | 1.3 | 4.6
